The target of one assay is T1, fibrinogen (Homo sapiens, UniProt P02675+P02679).
T1 construct: purchased Scottish National Blood Transfusion Service
Briefly: Fibrinogen binding assay: FITC-labelled anti-human fibrinogen antibody, flow cytometry. The settings on record: for Percent positive (percentage of microspheres positive for fibrinogen): flow cytometry, FITC rabbit anti-human fibrinogen antibody; for Median fluorescence intensity: measure of the amount of fibrinogen bound to the microspheres. The procedure:
2. Fibrinogen Binding Assay
(i) 5 μl of a suspension of artificial platelets obtained from step (iv) of method 1 above was added to 50 μl of HEPES buffered saline containing 1 μl of FITC-labelled rabbit antibody to human fibrinogen (DakoCytomation; F0111). The mixture was incubated at 20° C. for 20 minutes. Blank microspheres (without DTNB treatment or peptide) or a cysteine control sample were used as a negative control for these assays.
(ii) After 20 minutes the reaction was stopped by the addition of 0.5 ml saline. After a further 10 minutes, the sample was diluted 1/10 in saline and analysed in a Flow Cytometer (e.g. Coulter XL-MCL Flow Cytometer).
(iii) Data were recorded as the percentage of microspheres positive for fibrinogen and the median fluorescence intensity of the particles. The latter is a measure of the amount of fibrinogen bound to the microspheres and is in arbitrary units (log scale).

The next assay has as its system thrombin. Briefly: Response of products to thrombin in platelet-free plasma (light transmission aggregometer). It counts as biochemical, human. To be noted: increase in light transmission over 20 minutes, mean ± sd of 4 experiments. The protocol: Cross-linking of the agent of the invention via fibrin-fibrin bridging can be tested in a modified aggregation assay, for example, a protocol based on Levi et al, 1999, Nature Medicine, […], 107-111. The method that we used is reported below.
The assay was performed using a light transmission aggregometer (we used a PAP4 aggregometer (BioData Corporation)). […] Aggregation of the microspheres causes an increase in light transmission, which can be recorded as percentage “aggregation” relative to plasma alone.
The microspheres can be counted using a particle counter such as a Flow cytometer (e.g. Beckman Coulter MCL-XL) or Coulter Z2.
(ii) Platelet-free plasma was prepared by centrifuging blood for 30 minutes at 1500× g and collecting the supernatant.
(iii) 350 μl platelet-free plasma was placed in an aggregometer cuvette and 50 μl of blank microspheres were added. […]

In assay [1] the test system is platelets. Briefly: Platelet aggregation in platelet-depleted plasma by counting single platelets in a flow cytometer. It counts as cell-based, human. To be noted: mean ± sd of 3 experiments; for Percentage aggregation in the absence of ADP: inactive platelets, percentage loss of single CD42b-positive platelets from the gate; for Percentage aggregation in the presence of ADP: platelets activated with sub-optimal ADP, percentage loss of single CD42b-positive platelets. The procedure: 3.2 Preparation of Platelet-Depleted Plasma
(i) Two tubes of blood were collected into tri-sodium citrate anticoagulant, by clean venepuncture via a 21 gauge butterfly needle. The blood was processed within 10 minutes of collection, to minimise platelet activation in vitro.
(ii) One tube of blood was centrifuged at 150× g for 20 minutes at 20° C. to prepare platelet rich plasma (PRP).
(iii) A second tube of blood was centrifuged at 1500× g for 30 minutes at 20° C. to prepare platelet poor plasma (PPP).
(iv) The PRP was removed from the blood cell fraction and mixed with the PPP to achieve a platelet count of between 10 and 50×10^6 platelets/ml.
4.1 Method for Measuring Aggregation by Counting in a Flow Cytometer
Flow cytometry can be used to count the number of residual single platelets, and thereby to calculate the percentage of platelets that have bound to artificial platelets. The sample is analysed by the forward and side scatter and an electronic gate is set around the population of single platelets. To do this a sample of platelet-rich plasma is used that contains EDTA to prevent platelet-platelet aggregation occurring. The platelets are labelled with a fluorescently-conjugated antibody such as a CD42b monoclonal that binds to the GPIb receptor on all platelets.
As aggregation occurs the number of platelets within the gate declines. The artificial platelets should not induce aggregation of non-activated (“resting”) platelets. If, however, the platelets are activated, for example by ADP they should aggregate with the artificial platelets. In this assay a sub-optimal concentration of ADP is used to distinguish the effects of the artificial platelets in platelet-deficient plasma.
(i) To set the platelet gate, whole blood that had been collected into EDTA was used. 5 μl of EDTA anticoagulated blood was added to 50 μl Hepes-buffered saline and analysed by forward and side scatter in a flow cytometer (e.g. Beckman Coulter MCL-XL). A gate was set around the platelet population so that>98% of the single platelets are contained within the platelet gate.
(ii) 400 μL of platelet-depleted plasma, with a platelet count of 10-60×10^6/ml, was mixed with 20 μL of control microspheres (blank capsules as disclosed in Example 1, Method 1 (i)) at 10 mg albumin/ml and ADP was added at final concentrations of between 1 and 4×10^−5 M. The sample was stirred at 900 rpm at 37° C. in an aggregometer cuvette for up 10 minutes and aggregation was measured as the change in light transmission (as described in section 4.2 below). The ADP concentration that gave>0% and<20% aggregation was used for the subsequent analysis of the interaction of the product with platelet-depleted plasma.
(iii) To test the products, 400 μL of platelet-depleted plasma, with a platelet count of 10-60×10^6/ml, was mixed with 20 μL of test microspheres at 10 mg albumin/ml and ADP at a concentration determined as described above. The sample was mixed at 900 rpm for up to 10 minutes. At appropriate times 5 μl aliquots were removed for flow cytometric analysis as follows.
(iv) For the analysis 5 μl of test sample was added to 50 μ1 Hepes-buffered saline containing an appropriate concentration of a fluorescently-conjugated antibody to an antigen present on all platelets. We used 1 μl of an RPE-conjugated CD42b monoclonal antibody (we used antibody 555473 provided by BD Harlingen). The sample was incubated for 20 minutes at room temperature (typically 20° C. ) then diluted with 0.5 ml formyl saline (0.2% formalin in 0.9% NaCl).
(v) The diluted sample was then analysed by forward and side scatter in a flow cytometer (e.g. Beckman Coulter MCL-XL) using the gate set around the platelet population in the control sample (see 4.1.i), allowing a fixed volume of sample (e.g. 20 μl) to pass through the cytometer. Particles enclosed in the platelet gate were analysed for fluorescence to identify the number of single platelets within the gate. […]
(A flow cytometer gives signals particle by particle.)

The subject of assay [2] is platelets. The assay can be described thus: Platelet aggregation in platelet-depleted plasma by light transmission (PAP-4 aggregometer). Type of assay: cell-based, human. The procedure: 4.2 Method for Measuring Aggregation by Light Transmission Using the PAP-4 Platelet Aggregometer
In this system the product was mixed with platelet-depleted plasma in a stirred system at […] and aggregation was measured by a change in light transmission.
(i) 400 μl of platelet-depleted plasma was mixed with 20 μl of blank microspheres at 10 mg albumin/ml.
(ii) ADP was added at concentrations between 1 and 4×10^−5M
(iii) Aggregation was measured over 20 minutes and recorded as the percentage of maximum using autologous plasma to set the value for 100% aggregation.

Assay [3] concerns platelets. The settings on record: purified peptide; cited from earlier work.
Assay [4] addresses fibrinogen (human) (UniProt P02671). The assay can be described thus: flow cytometry, FITC anti-human fibrinogen; albumin microspheres without peptide, fibrinogen bound directly to the surface.
Assay [5] has the same target. The assay can be described thus: flow cytometry, FITC anti-human fibrinogen; albumin microspheres without peptide, coated directly with 10 mg/ml fibrinogen at pH 6.0.
For assay [6] the target is unchanged. Briefly: flow cytometry of peptide-linked albumin microspheres incubated with 3 mg fibrinogen per ml, detected with FITC rabbit anti-human fibrinogen.
The mark [7] stands for this setting: listed as peptide-coupled microspheres.

Ends that are not written are not given here.

T1 sequence (P02671 20-629 partner limits assumed): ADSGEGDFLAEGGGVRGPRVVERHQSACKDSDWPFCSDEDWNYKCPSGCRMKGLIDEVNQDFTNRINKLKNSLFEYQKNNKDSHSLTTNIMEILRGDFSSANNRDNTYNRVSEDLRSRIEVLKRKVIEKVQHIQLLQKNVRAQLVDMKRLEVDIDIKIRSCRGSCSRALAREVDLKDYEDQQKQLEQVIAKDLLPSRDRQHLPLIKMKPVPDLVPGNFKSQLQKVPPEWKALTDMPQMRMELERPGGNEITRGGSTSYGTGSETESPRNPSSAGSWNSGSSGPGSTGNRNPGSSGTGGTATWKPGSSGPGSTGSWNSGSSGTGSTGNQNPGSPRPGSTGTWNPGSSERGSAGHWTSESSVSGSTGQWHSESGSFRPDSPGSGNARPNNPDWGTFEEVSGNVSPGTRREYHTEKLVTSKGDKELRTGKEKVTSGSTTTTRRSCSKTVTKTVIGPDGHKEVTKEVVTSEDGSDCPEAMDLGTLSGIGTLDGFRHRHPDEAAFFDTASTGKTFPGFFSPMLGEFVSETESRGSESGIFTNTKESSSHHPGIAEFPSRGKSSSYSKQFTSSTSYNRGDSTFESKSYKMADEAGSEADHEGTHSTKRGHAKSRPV
T1 sequence (P02675 31-491): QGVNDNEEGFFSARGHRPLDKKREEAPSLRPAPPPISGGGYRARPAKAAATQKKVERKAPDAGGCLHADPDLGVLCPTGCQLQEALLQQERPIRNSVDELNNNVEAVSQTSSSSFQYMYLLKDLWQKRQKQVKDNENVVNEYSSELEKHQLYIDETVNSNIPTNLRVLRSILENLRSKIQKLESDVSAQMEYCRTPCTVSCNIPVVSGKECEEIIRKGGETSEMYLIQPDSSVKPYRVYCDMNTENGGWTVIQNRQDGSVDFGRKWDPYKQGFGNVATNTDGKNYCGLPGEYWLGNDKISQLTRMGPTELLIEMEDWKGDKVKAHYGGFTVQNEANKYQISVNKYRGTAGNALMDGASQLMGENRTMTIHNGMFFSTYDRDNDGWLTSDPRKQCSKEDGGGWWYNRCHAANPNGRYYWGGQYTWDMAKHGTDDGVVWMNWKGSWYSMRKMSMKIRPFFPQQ
T1 sequence (P02679 27-437 isoform P02679-2 limits assumed): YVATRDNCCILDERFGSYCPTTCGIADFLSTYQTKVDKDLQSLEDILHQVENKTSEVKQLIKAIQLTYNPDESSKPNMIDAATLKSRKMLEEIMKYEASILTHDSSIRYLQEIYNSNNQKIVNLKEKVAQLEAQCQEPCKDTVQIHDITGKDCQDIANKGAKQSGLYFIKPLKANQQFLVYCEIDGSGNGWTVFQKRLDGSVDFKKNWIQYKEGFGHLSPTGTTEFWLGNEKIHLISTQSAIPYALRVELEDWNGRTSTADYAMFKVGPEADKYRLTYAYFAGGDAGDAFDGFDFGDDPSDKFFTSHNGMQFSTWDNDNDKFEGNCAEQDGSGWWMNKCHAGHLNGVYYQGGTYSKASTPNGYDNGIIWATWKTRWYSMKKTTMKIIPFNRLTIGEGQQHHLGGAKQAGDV
fibrinogen (human), sequence (P02671 20-629 limits assumed, chain 1 of 3): as the sequence (P02671 20-629 partner limits assumed) above
fibrinogen (human), sequence (P02675 31-491 limits assumed, chain 2 of 3, further chain): as the sequence (P02675 31-491) above
fibrinogen (human), sequence (P02679 other isoform, or with tags, fused parts or gaps limits assumed, chain 3 of 3, further chain): as the sequence (P02679 27-437 isoform P02679-2 limits assumed) above

Consider “Peptide Gly^n = 0: albumin microspheres with bound peptide GPRPC, incubated with 3 mg fibrinogen”, for which, in the assay with fibrinogen, the “Percent positive (percentage of microspheres positive for fibrinogen)” value was 6% and the Median fluorescence intensity is on record as 2.4 arbitrary units (log scale).

Regarding “Peptide Gly^n = 3: albumin microspheres with bound peptide GPRPGGGC, incubated with 3 mg fibrinogen”, in the assay with fibrinogen, the “Percent positive (percentage of microspheres positive for fibrinogen)” value is on record as 94% and the Median fluorescence intensity was 28 arbitrary units (log scale).

As for “Peptide Gly^n = 6: albumin microspheres with bound peptide GPRPGGGGGGC, incubated with 3 mg fibrinogen”, in the assay with fibrinogen, the “Percent positive (percentage of microspheres positive for fibrinogen)” value was determined as 95% and the Median fluorescence intensity is listed as 26 arbitrary units (log scale).

In the case of “Product 2: albumin microspheres with peptide GPRPGGGGGGC bound, without fibrinogen”, the “Percentage aggregation in the absence of thrombin” value in the assay on thrombin is given as 4.75 ± 4.4%; in the assay with thrombin (listed as 0 mg/ml), 4.25 ± 4.93%. In addition, the results for the “Percentage aggregation in the absence of ADP” value with platelets [1], in the assay with platelets [1] (listed as 0 mg/ml) and with platelets [1] (setting [7]) were 17.8 ± 3.5%, 17.9 ± 3.45% and 17.8±3.5%, respectively. Moreover, the “Percentage aggregation in the presence of ADP” value with platelets [1] amounted to 57.3 ± 9.3%; with platelets [1] (listed as 0 mg/ml), 57.6 ± 7.64%; in the assay on platelets [1] (setting [7]), 57.3±9.3%. Further, the “Percent positive (percentage of microspheres positive for fibrinogen)” value with fibrinogen is listed as 13.1%; with fibrinogen (listed as 0 mg/ml), 0%. Further, the Median fluorescence intensity in the assay with fibrinogen is 1.6 arbitrary units (log scale); with fibrinogen (listed as 0 mg/ml), 0 arbitrary units (log scale). Further, the “Aggregation in the absence of ADP (aggregometry)” value in the assay on platelets [2] is reported as “only low levels of aggregation”.

TDVNGDGRHDL [Product B12]: the “Effect on platelet aggregation” value in the assay on platelets [3] is “caused inhibition of platelet aggregation”.

In the assay with fibrinogen (human) [4], “human albumin microspheres of the reference batch (fibrinogen bound directly to the surface, method of WO 98/17319) (from UniProt P02768 25-609)” displayed a Median fluorescence intensity (arbitrary units (log scale)) of 22.4 and a Percent positive of 94.7%. In the assay with fibrinogen (human) [5], the Median fluorescence intensity (arbitrary units (log scale)) came to 22 and the Percent positive was determined as 94%.

In the assay with fibrinogen (human) [6], GPRPC (also: Cys5 thiol bound to human albumin microspheres (DTNB-activated thiol)) [peptide GPRPC linked to human albumin microspheres] showed a Median fluorescence intensity (arbitrary units (log scale)) of 2.4 and a Percent positive of 6%.

The values are drawn from patent US20080064628A1, “Fibrinogen Targetting Microparticles For Promoting Haemostasis” (Haemostatix Limited, priority 2003, published 2008).
